Laboratory results reported in a protein production outcome set (Wang et al. 2014).

Assay: label from the status in PepcDB records

Row | Sequence | protein production
1 | MVKPLRLNDRHQQILRATVQHYIATAEPVGSHTLAQEYQFAVSSATIRNALGQLEKAGLLYQPHVSAGRVPSDSGYRIYVDNLLTWSDRQSRTVKQRLENEINGDNWHFEALIQRMGQILAGLSGYIALITFPQTETVQLRHLQLMLLPSHQILIILVTDSYHTHSATLDLPAAMEAKEEGELEQELAIFSNFLNAQLRGKNLSELSHLNWQELDQKFSIYADFLKGLQQQIKPLLQRRMAGPLVVHGVSKVIQQPEFSQLEQVQMLLSLLEQEQDKLFSLLFDPDNYGDNLANLGQEMNLLTGETMPKTRPVVTIRIGAENPLESMHPCTLVSAIYRQQEIPMGSVSILGPTRMVYQQTIPLVEQAAECLSEALSKN | failed
2 | MVKSIVILIETVTMKIPAVYSDGSFKTFNDSETTAQKLVDSGVVNTFAFGPTLVENGKVAVSENEEVGQDMADNPRTAIVVNEESDRSVHYIVIVSDGRTSESSGLTLYEMAELMKSYGVMTGYNLDVGDSSTMYSNGQVINKPTRKRKQNLRKGGERYRLHRLLKNLLASTFSPPILVLEHHHHHH | not failed
3 | MVLFHLIKKESLQIFRNRTALLMMVIFPILMIVILSFAFKSSFNTATTVPKLTIRYQLEGEKTDYQKNFLAFLKVLNQKLHLETKPSNSLEKDRQRVSEGALTAVLEVKKNQTIKVITNNINQQNADLINMLVKNYVDNAKTYDSIAALYPQQLNHIRKRSVDYVKVSSIQTSKGMTSADYYAISMFTMITFYSMMSAMNLVLSDRQQRITNRIHLTGVSPSFLVFGKLIGAMLATTVQLSLLYIFTRFVLRVNWGTNEWMLIGITASLVYLSVAIGIGLGISIKNEAFLTVASNTIIPIFAFLGGSYVPLTTLHSSIINQLSNISPIKWVNDSLFYLIFGGQYNPIPVTLIVNISIGTIFIILALIGMRKQVTT | failed
4 | MVLKERHKKICLLPSYSRLAHYPGLLMLTTLIYRSHIRGDEPVKKIEEMVSIANRRNMRSDVTGILLFNGSHFFQLLEGPEEQVQMIYRAICQDPRHYNIVELLCDYAPARRFGKAGMELFDLRLHERDDVLQAVFDKGTSKFQLTYDDRALQFFRTFVLATEQSTYFEIPAEDSWLFIADGSDKELDSCTLSSNINDHFAFHPIVDPLSRRIIAFEAIVQKNEDSPSAIAVGQRKDEEIYTADLKSKALAFAMAHALKLGDKMISINLLPMTLVNKPDAVSFLLDEIKANALVPEQIIVEFTESEVISRFDEFAEAVKSLKAAGISVAIDHFGAGFAGLLLLSRFQPDRIKISQELITNVHKSGPRQAIIQAIMKCCTSLEIQVSAMGVATPEEWMWLESAGIEMFQGDLFSKAKLNGIPSVAWPEKK | failed
5 | MVLVILDFVVEWRDRVMVRWWSLLLDQGIEWSVKVVKRLLDQGVEWFDMIRGCQSSPLLLLAIKMCTEATKSSQIIMMGVNLRSLKDGFIDKGNSRVHLMANMRKANSLDDDSKPDIHSRDRDPHNYTTS | failed
6 | MVMARNRNSNQLASHGAQAALDQMKYEIAQEFGVQLGADTSSRANGSVGGEITKRLVAMAEQQLGGGYTRLEHHHHHH | not failed
7 | MVMMFIGIDDTDSPNKYCTTYIATLLIEELKGCGYSVDMPKLIRMNPMVKYKTRGNGGVAIHILDELYSKDKEEIKNITISLVEKYTDFECENTNPGIVFLDEAKYKENREKLTNYYKKVLYDIVSVDYAEKFILKVGGEFIKYKLGRGIIGALGAISSTPPYTYELLAYRKKEMWGKKREIDEKSVIEMDKETFPYTFDNYDYENEKILIAPNTPCPVLFGIRGIDAEILLKAMHKIEGEKPERFMIFKTNHGTDVHLRKMNIKDIYPNTGVIVYGRVVEEPRDIEGGHVIFKLSDGTGEIDCMAYEPTKGFRDIIRKLIVGDYIAVYGTVREKPLGINIEKIKILKLEKKFVKDKRCPYCGGTLKAKGKKAGYKCKKCKKTIAYDEIKMIEVERDLKTGFYEVPGSARRHLSKPIQLIDLI | not failed
8 | MVMNKLILFGSIFFKCWQQNRISISAGYLTYNTMLALVPLVMVVFSVFTFFPIFTEATELLKTFVYDNFAPNAGNVVEEYVELFVSNSQKMGLVSMLGLFIVAVMLISSIDQSLNDIWHNTRKRSLLLSFLLYILILIFAPLLAGASIAITTYIMSFEVFSENGIFSFSHYLLEYAPFLLVWLLFTLVYWIVPNTTVAFRHATIGALFAASFFTLGKQAFIWYVVTFPSYQAIYGTLAVLPIMIVWIHLSWQVVLLGGQFAAVLKEINMLKENER | not failed
9 | MVNNDTLSGDVYTASEAKQVQNVSYGTIVNVRPVQIQGGDDSNVIGAIGGAVLGGFLGNTVGGGTGRSLATAAGAVAGGVTGQGVQSAMNKTQGVELEIRKDDGNTIMVVQKQGNTRFSPGQRVVLASNGSQVTVSPRLEHHHHHH | failed
10 | MVNPIATGILVLAALYFARSILMPLAFSLFVIALAWPIQMALQRRIPRLAALLITLLLVVLVIVIVGSAIVWGLGELSQWLFYNTGRLQAIYASWTDWLEGHGIAIVSPLGELFSISRLVGLTHSLVTRLNSVAGFAVLTFIFVMLGLLEAEDLQRRLRSSLAQPQGEMLLHIGREIAGKIRRFMVVRSLACILTGLVVWAFTLVAGLELASAWAAIAFALNYIPFIGPLMATIFPTLFAIAQSGSWQLALIVFVGLNVIQFAIGSYLEPFLTGASLAISPFAVMFAVFFWSFMWGVPGAFIGVPILIVVVTWCAHEQSTRWIATLLSGGRQST | failed
11 | MVNQPLVSIIIPAYRAENTIAFTVRSVLAQTYDHWQVAIGVDDQVDYLQLLAEQGINDPRLKQVFTGGIGSGEAIARNKAVSICDGDILANLDADDAFASDRLEKLVPLAEKYGVAIDNTGVYNSELVLYKQPFPQRQALNFATAADILSPRIPFFPVFQRQLLGDGWTKVPFAADVLFNLELLSRTEKVAIHPEPLYRYYKRDNSITQSANAFETAEKAYLTILSLLDEGALTLTDAIRQAARQEFSENLALNKVFRRYMEEGRCQNLEQFLDMTNNGQKIEFVSNLNLEHHHHHH | not failed
12 | MVNTRTRMSAIVATLGLVGSLALATASADESRTSGSAAQIALTEVARAQNPTAGAAGPQDTVWIAERAGTVRVLGDDGLGEPVLDISDETTTDGERGLLGLAFDERFAHLYLSYTDLEGTSTVDEFAVQDGTVREDTRRTVLTQEQPESNHNGGAITFGPDGYLYIALGDGGGGGDPQGNGQKLDTLLGKLLRIDPQGGDPYAIPEDNPFADDPDARGEIWSYGLRNPWRFSFDAGSGDLLIGDVGQSDWEEIDWAPASSPGGENYGWSQMEGTHPFRGGTEPANHVPPIHEYDRTGLGCSVTGGYVYRGEAVPGLAGQYVYSDYCDGTLRSLEIEDGRVTGEHDLGVNGGEVVSFAQDGDGELYVLAIGGTVSRVDPA | failed
13 | MVNVFYEEAGALKVGSILTDNTTSLQIESAHGKRSKIKAALVLLRFENPPMHGFMQQAQEKAADIDVNFLWECCEENREFTGQELAGDYFGHTPDPLETAAILILLSQNPIYFHKKGVGRFKAAPPEILQAALASREKKRLAEEKQAGYVQQLMAFELPDTFRPLLDDLLYKPDKNTIEWKALETACDATRLSVPRLLERCGAIPSTHDYHYNQFLYEHFPEGIDTDAYPADFHLLDPEDLPVAGVKAFSIDDATTTEIDDAFSVTPLNFGSFRIGIHIATPALGVAPHSLLDKFAAKRLSTVYLPGRKITMLPESVIQHFTLGEAHHRPVLSLYLEVADDFTVTRTFSRIETIEVSTNLRLDSLERQFNEITLRENQTDYPFAHELRLLWNFSCKMEKLRGKDQDINSEKIDYSFIIDQDRVSVYERRRGAPIDKVVSELMIFANAEWGKQLADAGYAGIYRSQGNGKVKMSLSPAPHQGLGVSQYAWSSSPMRRYVDLINQRQLIALVSGNPPPYTREDDTLLIAMRDFEMAYATYAEFQRGMERYWCLRWLLQENISTSGAIVIKENMIKLDRLPLIVRIPSLPELAPGTLVAVGVSQIDLIDRSLNASFLGKSEG | failed
14 | MVPLPRSMRVLHWLTVLCLVMAASLILLRAELEGRALRQWLLEGHRHFGLMVLLLFVLRVSLRLRLRALPPGPPSPLIMRLAAGGTHVAMYALMLALPLIGWSLSNAYGKTVYLFGITLPNLVAADEDLADTLGTWHLNAAWALLALVAVHIVAALVHHLVLRDGLLHRVLPGKHHR | failed
15 | MVPRFATLGRIPKGVWVLGGVSLLMDVSSEMIHSLLPLFMATTLGASVIIIGLIEGLAEATALILKVFSGAISDYVGKRKGLALLGYGLGALSKPLFAIAPTAGVVFSARMIDRVGKGIRGAPRDALVADVTPPEIRGAAYGLRQALDTVGAFLGPLLAVLLMFIWANDFHAIFWVAVIPAVLSILLLGFGLQEPKSAIAHKRSNPLKRENLKKLSAAYWWVVAIGSIFTLARFSEAFLVLRAQQMEIPLYTIPLVMVAMNLVYSLTAYPFGKLSDSMSHSKLLQWGLLVLILADIVLALSGHWSTLLIGVALWGIHMGMTQGLLAAMVAHTAPPELRGTAFGMFNLMSGLALLLASTGAGVLWETFGAASTFYAGAIICVVTLIGMRVMPSAYRQD | not failed
16 | MVPSASDAWRTALRDLRETLPERTVQNWLDPIQPLDLSTDEGSPTLTLQVPTPFGIQYLRSRFQRSIRQAVSEAVGEPTDVTYQVAPEEERPDEIATDSGSSGSAPDEPDASSSPQDRPSSAPSSDQAGRSSTSPRPSEPVSSSSPAGREAINQSPSPDASTSGGASSPTGPTTPRPSSPDVADVSDAGRTDDASAPSPPQTDAGSPDERSALYEQAKQHLRPEYTFDEFVEGDGNRLARSAAFAVAQEPGSTNYNPLLVYGGVGLGKTHLAQAVANYALEHNTAERVLYVSSDRFTSQFVQSVRENRIAAFSSYYRQADLLIVDDVQFFGEKEKTQEEFFHIFNDLHQNGKQIFLCADRPPAEIPGIEERLLSRFQWGLSADIQRPDLETRIAILQRKAARQDIAVSPDVLELIAQRIDSNVRQLEGALTRLTALVQLDDRTLDLDTARRFLREHTDEGADALNADDIIEQVAEYFRLEKGDLLSRSRKQTVAQARQIAMYLCRELTDESYDHIGSRFGGRDHSTVIHAYRKIEEDLESDTELQDDISSLQSNLQDRSLSSSL | failed
17 | MVPSTFSRLKAARCLPVVLAALIFVGCGTHTPDQSTAYMQGTAQADSAFYLQQMQQSSDDTRINWQLLAIRALVKEGKTGQAVELFNQLPQELNDSQRREKTLLAVEIKLAQKDFAGAQNLLAKITPADLEQNQQARYWQAKIDASQGRPSIDLLRALIAQEPLLGAKEKQQNIDATWQALSSMTQEQANTLVINADENILQGWLDLQRVWFDNRNDPDMMKAGIADWQKRYPNNPGAKMLPTQLVNVKAFKPASTNKIALLLPLNGQAAVFGRTIQQGFEAAKNIGTQPVAAQVAAAPAADVAEQPQPQTADGVASPAQASVSDLTGDQPAAQPVPVSAPATSTAAVSAPANPSAELKIYDTSSQPLSQILSQVQQDGASIVVGPLLKNNVEELLKSNTPLNVLALNQPENIENRVNICYFALSPEDEARDAARHIRDQGKQAPLVLIPRSSLGDRVANAFAQEWQKLGGGTVLQQKFGSTSELRAGVNGGSGIALTGTPITPRATTDSGMTTNNPTLQTTPTDDQFTNNGGRVDAVYIVATPGEIAFIKPMIAMRNGSQSGATLYASSRSAQGTAGPDFRLEMEGLQYSEIPMLAGGNLPLMQQALSAVNNDYSLARMYAMGVDAWSLANHFSQMRQVQGFEINGNTGSLTANPDCVINRKLSWLQYQQGQVVPAS | not failed
